B1: DORN1 extracellular domain (atDORN1-ECD; LecRK-I.9): N124N225D (protein)
parent chain: MARWLLQILIISSLHLSSVSSQQETSFVYESFLDRQNLYLDKSAIVLPSGLLQLTNASEHQMGHAFHKKPIEFSSSGPLSFSTHFVCALVPKPGFEGGHGIVFVLSPSMDFTHAESTRYLGIFNASTNGSSSYHVLAVELDTIWNPDFKDIDHNHVGIDVNSPISVAIASASYYSDMKGSNESINLLSGNPIQVWVDYEGTLLNVSVAPLEVQKPTRPLLSHPINLTELFPNRSSLFAGFSAATGTAISDQYILWWSFSIDRGSLQRLDISKLPEVPHPRAPHKKVSTLIILLPVCLAILVLAVLAGLYFRRRRKYSEVSETWEKEFDAHRFSYRSLFKATKGFSKDEFLGKGGFGEVYRGNLPQGREIAVKRVSHNGDEGVKQFVAEVVSMRCLKHRNLVPLFGYCRRKRELLLVSEYMPNGSLDEHLFDDQKPVLSWSQRLVVVKGIASALWYLHTGADQVVLHRDVKASNIMLDAEFHGRLGDFGMARFHEHGGNAATTAAVGTVGYMAPELITMGASTGTDVYAFGVFMLEVTCGRRPVEPQLQVEKRHMIKWVCECWKKDSLLDATDPRLGGKFVAEEVEMVMKLGLLCSNIVPESRPTMEQVVLYLNKNLPLPDFSPYTLGIGTFAPVLVDASSLVVSSASWSLSGPSMSSSSPNHSPYAWQSTDQPWGQTIDTKNSLHIVAEPEKPSPAVKMVTLPAEDPQSNHSSISSQRVQPVKREKRRLHQILVAFPWINKQYFKLGLPKHIVHVSLFFFLQLARL
B2: DORN1 extracellular domain (atDORN1-ECD; LecRK-I.9): N124N128N204D (protein)
parent chain: B1 parent chain
B3: DORN1 extracellular domain (atDORN1-ECD; LecRK-I.9): N128N204N225D (protein)
parent chain: B1 parent chain
B4: DORN1 extracellular domain (atDORN1-ECD; LecRK-I.9): N124N128D (protein)
parent chain: B1 parent chain
B5: DORN1 extracellular domain (atDORN1-ECD; LecRK-I.9): N204D (protein)
parent chain: B1 parent chain
B6: DORN1 extracellular domain (atDORN1-ECD; LecRK-I.9): Endo H (protein)
parent chain: B1 parent chain
B7: DORN1 extracellular domain (atDORN1-ECD; LecRK-I.9): N124N204D (protein)
parent chain: B1 parent chain
B8: DORN1 extracellular domain (atDORN1-ECD; LecRK-I.9): N225D (protein)
parent chain: B1 parent chain
B9: DORN1 extracellular domain (atDORN1-ECD; LecRK-I.9): PNGase F (protein)
parent chain: B1 parent chain
B10: DORN1 extracellular domain (atDORN1-ECD; LecRK-I.9): N124D (protein)
parent chain: B1 parent chain
B11: DORN1 extracellular domain (atDORN1-ECD; LecRK-I.9): N128N204D (protein)
parent chain: B1 parent chain
B12: DORN1 extracellular domain (atDORN1-ECD; LecRK-I.9): N124N128N225D (protein)
parent chain: B1 parent chain
B13: DORN1 extracellular domain (atDORN1-ECD; LecRK-I.9): N124N204N225D (protein)
parent chain: B1 parent chain
B14: DORN1 extracellular domain (atDORN1-ECD; LecRK-I.9): N124N128N204N225D (protein)
parent chain: B1 parent chain
B15: DORN1 extracellular domain (atDORN1-ECD; LecRK-I.9): N128D (protein)
parent chain: B1 parent chain
B16: DORN1 extracellular domain (atDORN1-ECD; LecRK-I.9): N204N225D (protein)
parent chain: B1 parent chain

How the values were obtained:
[1] = expression yield of multisite mutants; conditions: glycan lost; control: wild type
[2] = yield of purified secreted protein, SDS-PAGE; conditions: glycan lost; control: wild type
[3] = aggregation after overnight glycosidase digestion; conditions: glycan lost; control: untreated

Protein | expression_or_secretion, percent_of_wt [1] | further results
B1 | decreases | 
B2 | decreases | 
B3 | decreases | 
B4 | decreases | 
B5 |  | expression_or_secretion [2]: no change
B6 |  | stability_or_folding [3]: decreases
B7 | decreases | 
B8 |  | expression_or_secretion [2]: no change
B9 |  | stability_or_folding [3]: decreases
B10 |  | expression_or_secretion [2]: no change
B11 | decreases | 
B12 | decreases | 
B13 | decreases | 
B14 | decreases | 
B15 |  | expression_or_secretion [2]: no change
B16 | decreases | 

— publication PMC5053164
